Publication PMC9035363 (Cell Reports, 2022)
Read-outs that look alike come from different tables or passages of the source.

B1: LY-CoV1404 (bebtelovimab), full-length human IgG1 mAb (antibody, V domains shown)
VH: QITLKESGPTLVKPTQTLTLTCTFSGFSLSISGVGVGWLRQPPGKALEWLALIYWDDDKRYSPSLKSRLTISKDTSKNQVVLKMTNIDPVDTATYYCAHHSISTIFDHWGQGTLVTVSS
VL: QSALTQPASVSGSPGQSITISCTATSSDVGDYNYVSWYQQHPGKAPKLMIFEVSDRPSGISNRFSGSKSGNTASLTISGLQAEDEADYYCSSYTTSSAVFGGGTKLTVL
B2: LY-CoV1404 Fab (papain digestion) (Fab, V domains shown)
VH: B1 VH
VL: B1 VL

Columns and labels:
[1] = target: SARS-CoV-2 RBD (monomeric) (SARS-CoV-2, Wuhan reference …, UniProt P0DTC2); test: SPR
[2] = target: T1, SARS-CoV-2 S protein, wild type, on CHO cells (SARS-CoV-2, Wuhan (GenBank MN908947.3), UniProt P0DTC2); test: cell-based or functional assay
[3] = target: T1, SARS-CoV-2 S protein, wild type, on CHO …; test: cell-based or functional assay; remark: listed apart in the source
[4] = target: T2, RBD-Fc, reference sequence (SARS-CoV-2, Wuhan reference …, UniProt P0DTC2); test: SPR
[5] = target: T2, RBD-Fc, reference sequence; test: SPR; remark: listed apart in the source

Binder	Kd [1] [nM]	authentic SARS-CoV-2/MT020880.1 neutralisation, IFA, IC50 (S-ACE2) [2] [µg/mL]	PRNT, Italy-INMI1 isolate, combination study, LY-CoV1404 alone, IC50 [3] [µg/mL]	PRNT, authentic Italy-INMI1 isolate, IC50 [3] [µg/mL]	PRNT, authentic WA isolate, IC50 [3] [µg/mL]	Kd [4] [nM]	Kd [5] [nM]
B1	1.58	0.009 to 0.0221	0.015	0.01	0.002	–	–
B2	–	–	–	–	–	4.01	3.71
